The supplement of paper PMC5998384

Experiments:
HeLa Kyoto [1] = experiment: solubility change mitosis vs G1/S (difference of NP-40 vs SDS log2 ratios) (log2 ratio difference); higher = more soluble in mitosis
HeLa Kyoto [2] = experiment: solubility in G1/S (NP-40 vs SDS abundance) (log2 ratio); higher = more soluble; conditions: cell cycle stage: G1/S
HeLa Kyoto [3] = experiment: melting temperature (median over replicates), in situ; higher = more thermally stable
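For melting temperature (median over replicates), in situ in this document: HeLa Kyoto cells synchronized by double thymidine or nocodazole block, proteins quantified by TMT10plex mass spectrometry, three independent biological replicates.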
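For solubility change mitosis vs G1/S (difference of NP-40 vs SDS log2 ratios) in this document: synchronized HeLa Kyoto cells (double thymidine block for G1/S, nocodazole release for mitosis), protein amounts in NP-40 versus SDS lysates quantified by mass spectrometry, three biological replicates.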
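For solubility in G1/S (NP-40 vs SDS abundance) in this document: HeLa Kyoto cells arrested at G1/S by double thymidine block, proteins quantified by TMT10plex mass spectrometry in mild NP-40 versus SDS extracts, three biological replicates.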

STAT2, sequence (chain, as listed by the source): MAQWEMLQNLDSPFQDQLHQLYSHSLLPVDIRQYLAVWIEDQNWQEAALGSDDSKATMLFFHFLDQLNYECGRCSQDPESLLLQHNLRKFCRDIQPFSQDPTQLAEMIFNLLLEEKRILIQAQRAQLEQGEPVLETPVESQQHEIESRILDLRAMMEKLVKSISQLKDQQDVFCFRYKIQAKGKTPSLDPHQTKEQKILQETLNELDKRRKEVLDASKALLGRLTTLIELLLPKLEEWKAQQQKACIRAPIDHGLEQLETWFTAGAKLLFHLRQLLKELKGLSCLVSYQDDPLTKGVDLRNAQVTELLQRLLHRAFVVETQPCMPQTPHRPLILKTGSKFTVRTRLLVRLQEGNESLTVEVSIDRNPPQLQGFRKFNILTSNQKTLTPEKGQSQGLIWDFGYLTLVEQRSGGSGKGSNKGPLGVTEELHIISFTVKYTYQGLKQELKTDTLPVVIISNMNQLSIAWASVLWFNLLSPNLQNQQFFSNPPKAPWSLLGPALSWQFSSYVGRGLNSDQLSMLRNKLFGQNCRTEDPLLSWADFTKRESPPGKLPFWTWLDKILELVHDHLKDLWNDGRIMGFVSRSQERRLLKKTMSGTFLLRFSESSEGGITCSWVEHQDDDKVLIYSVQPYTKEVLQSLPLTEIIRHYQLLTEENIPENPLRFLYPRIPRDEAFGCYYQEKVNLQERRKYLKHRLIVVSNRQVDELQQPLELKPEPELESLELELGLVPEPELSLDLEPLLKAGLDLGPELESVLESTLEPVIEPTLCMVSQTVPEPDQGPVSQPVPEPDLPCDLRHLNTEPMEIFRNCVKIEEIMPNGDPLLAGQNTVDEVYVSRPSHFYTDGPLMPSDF

Substance: MGLFGKTQEKPPKELVNEWSLKIRKEMRVVDRQIRDIQREEEKVKRSVKDAAKKGQKDVCIVLAKEMIRSRKAVSKLYASKAHMNSVLMGMKNQLAVLRVAGSLQKSTEVMKAMQSLVKIPEIQATMRELSKEMMKAGIIEEMLEDTFESMDDQEEMEEEAEMEIDRILFEITAGALGKAPSKVTDALPEPEPPGAMAASEDEEEEEEALEAMQSRLATLRS [CHMP3]
- solubility change mitosis (log2) (HeLa Kyoto [1]): -0.0644
- solubility in G1/S (log2) (HeLa Kyoto [2]): 0.866
- melting temperature (HeLa Kyoto [3]; cell cycle stage: G1/S): 51.4 °C
- melting temperature (HeLa Kyoto [3]; cell cycle stage: mitosis): 51 °C

Substance: STAT2
- solubility change mitosis (log2) (HeLa Kyoto [1]): -0.0626
- solubility in G1/S (log2) (HeLa Kyoto [2]): -0.0132
- melting temperature (HeLa Kyoto [3]; cell cycle stage: G1/S): 49.1 °C
- melting temperature (HeLa Kyoto [3]; cell cycle stage: mitosis): 50.9 °C

Substance: MAQQANVGELLAMLDSPMLGVRDDVTAVFKENLNSDRGPMLVNTLVDYYLETSSQPALHILTTLQEPHDKHLLDRINEYVGKAATRLSILSLLGHVIRLQPSWKHKLSQAPLLPSLLKCLKMDTDVVVLTTGVLVLITMLPMIPQSGKQHLLDFFDIFGRLSSWCLKKPGHVAEVYLVHLHASVYALFHRLYGMYPCNFVSFLRSHYSMKENLETFEEVVKPMMEHVRIHPELVTGSKDHELDPRRWKRLETHDVVIECAKISLDPTEASYEDGYSVSHQISARFPHRSADVTTSPYADTQNSYGCATSTPYSTSRLMLLNMPGQLPQTLSSPSTRLITEPPQATLWSPSMVCGMTTPPTSPGNVPPDLSHPYSKVFGTTAGGKGTPLGTPATSPPPAPLCHSDDYVHISLPQATVTPPRKEERMDSARPCLHRQHHLLNDRGSEEPPGSKGSVTLSDLPGFLGDLASEEDSIEKDKEEAAISRELSEITTAEAEPVVPRGGFDSPFYRDSLPGSQRKTHSAASSSQGASVNPEPLHSSLDKLGPDTPKQAFTPIDLPCGSADESPAGDRECQTSLETSIFTPSPCKIPPPTRVGFGSGQPPPYDHLFEVALPKTAHHFVIRKTEELLKKAKGNTEEDGVPSTSPMEVLDRLIQQGADAHSKELNKLPLPSKSVDWTHFGGSPPSDEIRTLRDQLLLLHNQLLYERFKRQQHALRNRRLLRKVIKAAALEEHNAAMKDQLKLQEKDIQMWKVSLQKEQARYNQLQEQRDTMVTKLHSQIRQLQHDREEFYNQSQELQTKLEDCRNMIAELRIELKKANNKVCHTELLLSQVSQKLSNSESVQQQMEFLNRQLLVLGEVNELYLEQLQNKHSDTTKEVEMMKAAYRKELEKNRSHVLQQTQRLDTSQKRILELESHLAKKDHLLLEQKKYLEDVKLQARGQLQAAESRYEAQKRITQVFELEILDLYGRLEKDGLLKKLEEEKAEAAEAAEERLDCCNDGCSDSMVGHNEEASGHNGETKTPRPSSARGSSGSRGGGGSSSSSSELSTPEKPPHQRAGPFSSRWETTMGEASASIPTTVGSLPSSKSFLGMKARELFRNKSESQCDEDGMTSSLSESLKTELGKDLGVEAKIPLNLDGPHPSPPTPDSVGQLHIMDYNETHHEHS [TSC1]
- solubility change mitosis (log2) (HeLa Kyoto [1]): -0.187
- solubility in G1/S (log2) (HeLa Kyoto [2]): 0.0426
- melting temperature (HeLa Kyoto [3]; cell cycle stage: G1/S): 50.2 °C
- melting temperature (HeLa Kyoto [3]; cell cycle stage: mitosis): 50.7 °C

Substance: MAAHLSYGRVNLNVLREAVRRELREFLDKCAGSKAIVWDEYLTGPFGLIAQYSLLKEHEVEKMFTLKGNRLPAADVKNIIFFVRPRLELMDIIAENVLSEDRRGPTRDFHILFVPRRSLLCEQRLKDLGVLGSFIHREEYSLDLIPFDGDLLSMESEGAFKECYLEGDQTSLYHAAKGLMTLQALYGTIPQIFGKGECARQVANMMIRMKREFTGSQNSIFPVFDNLLLLDRNVDLLTPLATQLTYEGLIDEIYGIQNSYVKLPPEKFAPKKQGDGGKDLPTEAKKLQLNSAEELYAEIRDKNFNAVGSVLSKKAKIISAAFEERHNAKTVGEIKQFVSQLPHMQAARGSLANHTSIAELIKDVTTSEDFFDKLTVEQEFMSGIDTDKVNNYIEDCIAQKHSLIKVLRLVCLQSVCNSGLKQKVLDYYKREILQTYGYEHILTLHNLEKAGLLKPQTGGRNNYPTIRKTLRLWMDDVNEQNPTDISYVYSGYAPLSVRLAQLLSRPGWRSIEEVLRILPGPHFEERQPLPTGLQKKRQPGENRVTLIFFLGGVTFAEIAALRFLSQLEDGGTEYVIATTKLMNGTSWIEALMEKPF [VPS33A]
- solubility change mitosis (log2) (HeLa Kyoto [1]): -0.165
- solubility in G1/S (log2) (HeLa Kyoto [2]): -0.0025
- melting temperature (HeLa Kyoto [3]; cell cycle stage: G1/S): 49.4 °C
- melting temperature (HeLa Kyoto [3]; cell cycle stage: mitosis): 49.9 °C
